What was measured:
[1] = target: BAFF (Homo sapiens (Human)) (UniProt Q9Y275); assay: BIAcore 3000, solution-phase equilibrium binding; free BAFF read on a BCMA-Fc chip; apparent KD
[2] = target: BAFF (Homo sapiens (Human)) (UniProt Q9Y275); assay: BIAcore 3000, solution-phase equilibrium binding, fit to a quadratic equation

Row | Kd [1] [µM] | stoichiometry (BAFF:BAFF-R:Fc) (BAFF:BAFF-R:Fc) [2] | Substance
1 | < 200 | 1 | vBAFF-R(R3-A49):Fc (from UniProt Q96RJ3 2-48) (Fc fusion)
2 | < 200 | 1 | vBAFF-R(R3-A72):Fc (from UniProt Q96RJ3 2-71) (Fc fusion)

Source: US20060234917A1
